Measured values taken from PMC8906434.

Target: PB2-C (amino acids 247 to 736) from influenza A/Vietnam/1203/2004 (H5N1) virus (influenza A/Vietnam/1203/2004 (H5N1))
Assay: SEC + other: SAXS

Rab11a_(1-173) (truncated Rab11a, GST tag removed) (from UniProt P62491 1-173) (domain or fragment)
stoichiometry N: 1
